Test results taken from article PMC12756933, “Evidence for biomolecular condensates formed by the Escherichia coli MatP protein in spatiotemporal regulation of the bacterial cell division cycle” (International journal of biological macromolecules, 2025).
Several values for one entry are separate records, joined by “and”; a condition that tells them apart may be missing. Equal values may be shown once. Blank lines part the entries; values can stand above or below the binder they belong to.

B3: FtsZ (natural protein, E. coli, UniProt P0A9A6 1-383, looked up)
chain: MFEPMELTNDAVIKVIGVGGGGGNAVEHMVRERIEGVEFFAVNTDAQALRKTAVGQTIQIGSGITKGLGAGANPEVGRNAADEDRDALRAALEGADMVFIAAGMGGGTGTGAAPVVAEVAKDLGILTVAVVTKPFNFEGKKRMAFAEQGITELSKHVDSLITIPNDKLLKVLGRGISLLDAFGAANDVLKGAVQGIAELITRPGLMNVDFADVRTVMSEMGYAMMGSGVASGEDRAEEAAEMAISSPLLEDIDLSGARGVLVNITAGFDLRLDEFETVGNTIRAFASDNATVVIGTSLDPDMNDELRVTVVATGIGMDKRPEITLVTNKQVQQPVMDRYQQHGMAPLTQEQKPVAKVVNDNAPQTAKEPDYLDIPAFLRKQAD
modifications: Alexa Fluor 488 or Alexa Fluor 647 at amino groups, on the tracer fraction only (<1 mol of dye per mole of protein)
notes: FtsZ, E. coli; Oligomers of variable size without GTP, polymers with GTP; also called FtsZ-Alexa 488; FtsZ-Alexa 647

Columns and labels:
FtsZ [1] = biological target: T1, FtsZ (E. coli, UniProt P0A9A6 1-383); experiment: AUC; multi-signal sedimentation velocity (MSSV), 20 uM FtsZ and 7 uM MatP, absorbance at 250 and 280 nm, 48,000 rpm; dilute solution buffer (50 mM Tris-HCl pH 7.5, 5 mM MgCl2) with 100 mM KCl, no GTP; settings: both partners purified
T1 construct: FtsZ, Escherichia coli cell division protein; oligomers of variable size without GTP, polymers with GTP; also called FtsZ-GTP; GTP-triggered FtsZ polymers
T1 sequence (looked up): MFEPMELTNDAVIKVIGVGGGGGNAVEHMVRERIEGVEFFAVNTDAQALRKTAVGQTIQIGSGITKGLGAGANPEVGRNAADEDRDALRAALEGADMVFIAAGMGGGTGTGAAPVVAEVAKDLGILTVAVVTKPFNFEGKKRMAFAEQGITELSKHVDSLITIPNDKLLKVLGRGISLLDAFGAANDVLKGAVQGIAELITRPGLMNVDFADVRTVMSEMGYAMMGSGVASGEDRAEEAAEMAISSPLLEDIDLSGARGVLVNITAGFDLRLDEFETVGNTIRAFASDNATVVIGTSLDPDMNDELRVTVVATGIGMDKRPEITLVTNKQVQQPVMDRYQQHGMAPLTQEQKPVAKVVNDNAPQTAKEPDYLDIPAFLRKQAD

[2] = biological target: the molecule itself; experiment: fluorescence correlation spectroscopy; dilute solution buffer: 50 mM Tris-HCl pH 7.5, 5 mM MgCl2, 100 mM KCl, 0.05 g/L BSA; 10 uM MatP with 10 nM MatP-Alexa 488 as tracer, alone or with 20 uM unlabelled FtsZ, no GTP; at 300 mM KCl the profiles of MatP and FtsZ/MatP overlapped
FtsZ [3] = biological target: B3; experiment: fluorescence polarisation; anisotropy titration of MatP (50 nM MatP-Alexa 488, 96 nM total MatP) with unlabelled FtsZ; 50 mM Tris-HCl pH 7.5, 5 mM MgCl2, 100 mM KCl; simple 1:1 model, apparent Kd = FtsZ concentration at half of the maximum signal; settings: both partners purified
[4] = biological target: the molecule itself; experiment: AUC; sedimentation velocity, dilute solution buffer with 100 mM KCl, GTP and GTP regeneration system, Rayleigh interference; FtsZ polymers with or without MatP

binding result (FtsZ [1]): binds
B1: MatP (natural protein, E. coli, UniProt P0A8N0 1-150, looked up)
chain: MKYQQLENLESGWKWKYLVKKHREGELITRYIEASAAQEAVDVLLSLENEPVLVNGWIDKHMNPELVNRMKQTIRARRKRHFNAEHQHTRKKSIDLEFIVWQRLAGLAQRRGKTLSETIVQLIEDAENKEKYANKMSSLKQDLQALLGKE
notes: MatP, Escherichia coli, untagged; sediments as a dimer (2.5 S); also called Ter macrodomain organizer MatP; MatP-Alexa 488 (labelled tracer)

Kd (FtsZ [3]): 8 µM and 18 µM
B2: MatP (natural protein, E. coli, UniProt P0A8N0 1-150, looked up)
chain: MKYQQLENLESGWKWKYLVKKHREGELITRYIEASAAQEAVDVLLSLENEPVLVNGWIDKHMNPELVNRMKQTIRARRKRHFNAEHQHTRKKSIDLEFIVWQRLAGLAQRRGKTLSETIVQLIEDAENKEKYANKMSSLKQDLQALLGKE
modifications: Alexa Fluor 488 or Alexa Fluor 647 at amino groups, on the tracer fraction only (<1 mol of dye per mole of protein)
notes: MatP, E. coli, untagged; Labelled MatP was used as a tracer mixed with unlabelled MatP; Sediments as a dimer (2.5 S); also called Ter macrodomain organizer MatP; MatP-Alexa 488
stoichiometry N [2]: 2

Binder: B3
binding result [4]: binds
